Where a chain is given by its changes, count along the chain named.
B1: E7-11-28 (TCR, V domains shown)
Valpha: GQQVMQIPQYQHVQEGEDFTTYCNSSTTLSNIQWYKQRPGGHPVFLIQLVKSGEVKKQKRLTFQFGEAKKNSSLHITATQTTDVGTYFCAGIGSSNTGKLIFGQGTTLQVKP
Vbeta: EPEVTQTPSHQVTQMGQEVILRCVPISNHLYFYWYRQILGQKVEFLVSFYNNEISEKSEIFDDQFSVERPDGSNFTLKIRSTKLEDSAMYFCAITGRVSYEQYFGPGTRLTVT
B2: E7-11-194 (TCR, V domains shown)
Valpha: B1 Valpha with I92L
Vbeta: B1 Vbeta with I94T, V98A
B3: E7-11-455 (TCR, V domains shown)
Valpha: QKEVEQDPGPLSVPEGAIVSLNCTYSNSAFQYFMWYRQYSRKGPELLMYTYSSGNKEDGRFTAQVDKSSKYISLFIRDSQPSDSATYLCAMAGSGNTGKLIFGQGTTLQVKP
Vbeta: DTGVSQDPRHKITKRGQNVTFRCDPISEHNRLYWYRQTLGQGPEFLTYFQNEAQLEKSRLLSDRFSAERPKGSFSTLEIQRTEQGDSAMYLCASSSSTKNIQYFGAGTRLSVL
B4: E7-11-176 (TCR, V domains shown)
Valpha: DQQVKQNSPSLSVQEGRISILNCDYTNSMFDYFLWYKKYPAEGPTFLISISSIKDKNEDGRFTVFLNKSAKHLSLHIVPSQPGDSAVYFCAAKNSNSGYALNFGKGTSLLVTP
Vbeta: not shown

Target: T1, HPV16 E7 peptide on HLA-A*02:01 (human)
T1 peptide: YMLDLQPET
Assay: multimer staining

Binding result, recognises:
B1
B2
B3
B4
